In the DeepSol protein solubility set:

Experiment: soluble on expression in E. coli; label from the status in PepcDB or PDB records

Row | Sequence | soluble on expression in E. coli
1 | MGHHHHHHSHMESVALYSFQATESDELAFNKGDTLKILNMEDDQNWYKAELRGVEGFIPKNYIRVKPHPWYSGRISRQLAEEILMKRNHLGAFLIRESESSPGEFSVSVNYGDQVQHFKVLREASGKYFLWEEKFNSLNELVDFYRTTTIAKKRQIFLRDEEPLLKSPGACFAQAQFDFSAQDPSQLSFRRGDIIEVLERPDPHWWRGRSCGRVGFFPRSYVQPVHL | not soluble
2 | MTSFTGITAVANATNEMAMFKQAMKEVAAHPEWMSSRQIERQRWNPYSMEGGSTCAISGENFAIVASDTRMTQNDINILTRDAEKIQILNDNIILTTSGFYGDVLQLKKVLQSRLHKYRFDYRSDMSVDLCAELLSRNLYYRRFFPYYTGAILAGIDEHGKGAVFSYDPIGCIERLGYSASGAAEPMIIPFLDCQIGHVTLSEGYERPELTLDRAISLMKDSFRGAAEREISTGDKIHLVIAEAGKPVVVKFLPLRED | not soluble
3 | MSLKKNIYPNKEGCPVEFTLDVIGGKWKGILFYHMIDGKKRFNEFRRICPSITQRMLTLQLRELEADGIVHREVYHQVPPKVEYSLTEFGRTLEPIVLQMKEWGESNRDVLESYRSNGLVKDQQKEGGSHHHHHH | soluble
4 | MKRSKRFAVLAQRPVNQDGLIGEWPEEGLIAMDSPFDPVSSVKVDNGLIVELDGKRRDQFDMIDRFIADYAINVERTEQAMRLEAVEIARMLVDIHVSREEIIAITTAITPAKAVEVMAQMNVVEMMMALQKMRARRTPSNQCHVTNLKDNPVQIAADAAEAGIRGFSEQETTVGIARYAPFNALALLVGSQCGRPGVLTQCSVEEATELELGMRGLTSYAETVSVYGTEAVFTDGDDTPWSKAFLASAYASRGLKMRYTSGTGSEALMGYSESKSMLYLESRCIFITKGAGVQGLQNGAVSCIGMTGAVPSGIRAVLAENLIASMLDLEVASANDQTFSHSDIRRTARTLMQMLPGTDFIFSGYSAVPNYDNMFAGSNFDAEDFDDYNILQRDLMVDGGLRPVTEAETIAIRQKAARAIQAVFRELGLPPIADEEVEAATYAHGSNEMPPRNVVEDLSAVEEMMKRNITGLDIVGALSRSGFEDIASNILNMLRQRVTGDYLQTSAILDRQFEVVSAVNDINDYQGPGTGYRISAERWAEIKNIPGVVQPDTIE | soluble
5 | MLSIKQLSYALAVSKTLHFRKAADLCHVRQSTLSTGVSELERQLGIKIFERDNKKVLVTPLGREVLDKASNIMLQLEDMAHLDHSCGEP | not soluble
6 | MAHHHHHHMGNTNSSADRSNADDRGVHSEFMYRYETTKKLKLSYMMLKKNVATAVMTMEVTPQHLRDVGTGYSNVCACLKHGGSGGTNSCIQGQAAGREQASISRSRIDREFADESYKGFQTFCEAMDDIKAGVCVTSRTAIHERITVELDRMVLTAERVLKQGRKTMRSMAHFTKVARQVSRRERAAVDQGKDLSSSKRYAKAVKERNEKESLYKTELEAFDQLYEHVMVVSQEFCSSTTDIFLDCIVGYYREIVATIDVSDTPQCSRLQSRFRSREREVVLHQASDAGFCAMPAGHMDGSKSLSSTVPLKWD | soluble
7 | MGSDKIHHHHHHMKVLLYLEAEEYLKKSGIGRAIKHQEKALQIAGIDYTTNPTDDFDLVHMNTYGIRSWLLMSKAKKTGKKVIMHGHSTEEDFRNSFIGSNLVSPLFKWYLCRFYQKADAIITPTDYSKQLIKAYGIKKPIFVLSNGIDLSRYQRSEKKESAFRHYFHLSKDDKVVMGAGLYFMRKGIDQFVEVAAKMPDIRFIWFGETNKWVIPRKVRQIVTKQHPSNVTFAGYIKGDVYEGAMSASDAFFFPSREETEGIVVLEALASHQHVVLRDIPVYHGWVTEDSVELATDVDGFVEKLDKVLSGKSDKIKEGYHVAESRSIERIAHELASVYQKVMEL | not soluble
8 | MSLNTGGNLLCVQLTVRRGPVREAKKPTPRIRNDGRYKIMQIGDLHLSTGVGACREAVPDSYNGGKCEADPRTLDFVNRVLDDEKPDLVVLSGDQVNGDTAPDAPTAMFKIVSLLIERKIPYAAIFGNHDDEKTMSREAQMAIMESLPFSLSTAGPADIDGVGNYYVEVLARGKTDHSALTIYLMDTHAYTPDERNFPGYDWVKPNQIEWFKKTAAGLKKNHNEYTGRHMDIAFIHIPLTEYADPALPRVGEWKEGVTAPVYNSGFRDALVEQGIVMVSAGHDHCNDYCSLSLAGEGETKIPALWMCYAGGSGFGGYAGYGGYHRRVRLFEVDTNEARIKTWKRLESGDTASRIDLQIIVDGGKPQPIAPVSEGHHHHHH | not soluble
9 | MGSDKIHHHHHHMDAPSTTPHDAVFKQFLMHAETARDFLEIHLPVELRELCDLNTLHLESGSFIEESLKGHSTDVLYSVQMQGNPGYLHVVIEHQSKPDKKMAFRMMRYSIAAMHRHLEADHDKLPLVVPILFYQGEATPYPLSMCWFDMFYSPELARRVYNSPFPLVDITITPDDEIMQHRRIAILELLQKHIRQRDLMLLLEQLVTLIDEGYTSGSQLVAMQNYMLQRGHTEQADLFYGVLRDRETGGESMMTLAQWFEEKGIEKGIQQGRQEVSQEFAQRLLSKGMSREDVAEMANLPLAEIDKVINLI | not soluble
10 | MGPYFGKVSEVSSNSQTTYLPESADATQVQEQLGDFTDSESIPAIVVMVSDEPLTQQDITQLNEVVAGLSELDIVSDEVSPAIPSEDGRAVQVFVPLNPSAELTESVEKLSETLTQQTPDYVSTYVTGPAGFTADLSALEHHHHHH | not soluble
11 | MGHHHHHHSHMKGFTATLFLWTLIFPSCSGGGGGKAWPTHVVCSDSGLEVLYQSCDPLQDFGFSVEKCSKQLKSNINIRFGIILREDIKELFLDLALMSQGSSVLNFSYPICEAALPKFSFCGRRKGEQIYYAGPVNNPEFTIPQGEYQVLLELYTEKRSTVACANATIMCS | not soluble
12 | MGSDKIHHHHHHMNSSLQVGIGIDVGSSSARIGVYNYYNDALLEMAQEPVPYYQDSSKKSWKFWQKSTEIIKALQKCLQKLNIREYEVKSCGVSATCSLAIFERDRTSNMLIPYPNEDNVIFWMDSSAVNECQWLNMQCPQQLLDYLGGKFVPEMGVPKLKYFLDEYSHLRDKHFHIFDLHQYIAYELSRLYEWNIEGLLGRENLNGIGNDGEVSGWSSSFYKNIINLPSNVSIGTTSLVANKHISTTVVRSCIDSYASWFAVASPHLETSLFMIAGTSSCYMYGTTISDTRIPGVWGPFDTILDNRGDFSVYAAGQSCTGKLIEHLFESHPCARKILKDGADIYQVLEQTIRDIEKNNGLSIHILTKDMFFYGDYEGNRTPFADPRIKGSFIGESTDTSMLNLTYKYICILEFLSFQTKLIIDTFQNENSNIHIKELRISGSQAKNERLLSLISLVNNGVAIIKPKENVDMMGIKGAYVLAKSAKEKKQLADVITERDISNDSEKFESLAEYRLGNDSILLRKLLCVKYHIHLDMAKQQKRYHKLVDEVFQHL | not soluble
13 | MNGMCWIASYPKAGGHWLRCMLTSYVTGEPVETWPGIQAGVPHLEGLLRDGEAPSADPDEQVLLATHFTADRPVLRFYRESTAKVVCLIRNPRDAMLSLMRMKGIPPEDVEACRKIAETFIADEGFSSVRIWAGEGSWPENIRSWTDSVHESFPNAAVLAVRYEDLRKDPEGELWKVVDFLELGGRDGVADAVANCTLERMREMEERSKLLGLETTGLMTRGGKQLPFVGKGGQRKSLKFMGDDIEKAYADLLHGETDFAHYARLYGYAE | soluble
14 | TKRYYKSAFPVRICVIQYEMKKIYSFEEFANQVEYYVDVASDARSDFAVFPEIFTTQLMSFLEERSPSLAVQRITEYTEDYISLFTDLAVKYNVNIIGGSHFVEEEGKIYNIAYLFRRDGTIEKQYKLHITPNERKWWGISAGDQVRVFDTDCGKIAIQICYDIEFPELARIAADKGAKIIFTPFCTEDRQGYLRVRYCSQARAVENQIYTVISGTVGNLPQTENMDIQYAQSGIFAPSDFEFARDGIVGETNPNIEMVVIGDVDLEILRRQRQNGTVRQLKDRRRDIYHIQYKK | not soluble
15 | GMISDSISKRRSIRKYKNQSISHETIEKIIEAGINAPSSKNRQPWRFVVITEKEKESMLKAMSKGIQNEINDNGLLPGSRQHIAGANYTVEIMKQAPVTIFILNILGKSPLEKLSPEERFYEMANMQSIGAAIQNMSLTAVELGLGSLWICDVYFAYRELCEWLNTDSQLVAAISLGYPDEEPSRRPRLQLSDVTEWR | soluble
16 | MEGYPKIQYHGFIGNNRTAMLVAMNGYIDWGCLPNFNSNAVFSSILDKNKGGYFAIFPSDTTDVYVDQYYKEMTNVLVTEFVKNGKIILRLTDFMPDSEYGKISFPEVHRFVESFSEPIDITIDFKPTFNYLEHHHHHH | not soluble
17 | SNLLYKRWVERCRNIVDKLSEDRIGYVHVKGMDSQSFREVYSEVLGRCRNKEAIIVDTRHNGGGWLHDDLATLLSGKEYQRFVPRGQYIGSDPFNKWLKPSCVLVCEDNYSNAHGFPWVYKELKIGKLIGAPVPGTMTAVWWENQIDPSIVFGIPQVGCMDMRGQYAENHQLSPDIEVYNTPEKALAGEDQQLEAAVQEMLKTIGEKK | not soluble
18 | MGSDKIHHHHHHMPINIRRATINDIICMQNANLHNLPENYMMKYYMYHILSWPEASFVATTTTLDCEDSDEQDENDKLELTLDGTNDGRTIKLDPTYLAPGEKLVGYVLVKMNDDPDQQNEPPNGHITSLSVMRTYRRMGIAENLMRQALFALREVHQAEYVSLHVRQSNRAALHLYRDTLAFEVLSIEKSYYQDGEDAYAMKKVLKLEELQISNFTHRRLKENEEKLEDDLESDLLEDIIKQGVNDIIV | not soluble
19 | MSLRLHFHTQEMPMPALLYKADPARAERWRVLFAEHAPDIEWRVWPDIGDPADIHYLGAWLAPDDLQDLLPNLKVLFALSAGVDQLDLSRIPKSLPVVRLLDPGISHGMCEYASFAVLSLHREMLRYRQQQVEGLWKAQPLIPANKRRVGVMGLGLQAQHILSSLKPFGFQLSGWARSAHQVEGVTCYAGEEQLSEFLGQCDILLCVLPLTAQTEGILNRQLFERLPEGAALINMGRGGHLVEADLLEALDSGQLSAAVLDVLQQEPAPADHPFWQHPKILLTPHVAAMTQPESAFPGLLDNIRRFERGEAMQGQVNRGEGHHHHHH | soluble
20 | EQLAGIDNLRDLDPTGALATKLEAIAPTVSTYDSYAGRLISEYGLLLPVEPSSRLISQTELFQIAHSIVSAHTGALNTSNSPNTVTSTLISLVSEMDNHMVSPTDIEEESAAFLAMIEDVEATSKRAPSKEVYKWRDTQVLRNELLPLVQQLKTHLADNHLMTFGEQMSLAARLAAENPQVGASQRNRYQIIMLDEYQDTGHAQRVLLKSLFAGTAVTAVGDPMQSIYGWRGATAANLERFLTDFGSNGSPATKKELTVSFRNPPEVLDLANRVSRELLGVPEDPRRPVQPLEPGPAALNGIVRLGFFPSMDEERSYVADHLAQAYEQHDGDHPFTAAVLVRKRKHSAAIALELQQRGVPVE | not soluble
21 | MDWLLTPGPVRLHPKALEALARPQLHHRTEAAREVFLKARGLLREAFRTEGEVLILTGSGTLAMEALVKNLFAPGERVLVPVYGKFSERFYEIALEAGLVVERLDYPYGDTPRPEDVAKEGYAGLLLVHSETSTGALADLPALARAFKEKNPEGLVGADMVTSLLVGEVALEAMGVDAAASGSQKGLMCPPGLGFVALSPRALERLKPRGYYLDLARELKAQKEGESAWTPAINLVLAVAAVLEEVLPRLEEHLALKAWQNALLYGVGEEGGLRPVPKRFSPAVAAFYLPEGVPYARVKEAFAQRGAVIAGGQGPLKGKVFRLSLMGAYDRYEALGVAGMFREVLEEILPAS | soluble
